Experimental data taken from publication PMC2756588.

T1: Abp1, P15891
T1 sequence (P15891 535-592, looked up): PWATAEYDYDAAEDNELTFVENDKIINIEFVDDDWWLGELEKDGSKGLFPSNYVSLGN

T2: Bbc1, P47068
T2 sequence (P47068 1-78, looked up): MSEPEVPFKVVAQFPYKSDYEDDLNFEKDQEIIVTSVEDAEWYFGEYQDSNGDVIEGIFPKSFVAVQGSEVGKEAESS

T3: Boi1, P38041
T3 sequence (P38041 1-86, looked up): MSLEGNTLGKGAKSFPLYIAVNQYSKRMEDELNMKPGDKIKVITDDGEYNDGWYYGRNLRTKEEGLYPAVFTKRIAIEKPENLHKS

T4: Boi2, P39969
T4 sequence (P39969 32-116, looked up): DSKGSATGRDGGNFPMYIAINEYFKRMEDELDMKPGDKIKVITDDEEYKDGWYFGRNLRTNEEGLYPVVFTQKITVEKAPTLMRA

T5: Bud14, P27637
T5 sequence (P27637 247-328, looked up): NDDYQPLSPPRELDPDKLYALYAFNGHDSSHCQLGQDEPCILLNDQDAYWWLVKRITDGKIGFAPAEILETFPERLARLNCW

T6: Bzz1-1, P38822
T6 sequence (P38822 478-572, looked up): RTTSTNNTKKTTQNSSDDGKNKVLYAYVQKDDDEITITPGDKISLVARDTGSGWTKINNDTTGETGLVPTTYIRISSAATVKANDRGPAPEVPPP

T7: Bzz1-2, P38822
T7 sequence (P38822 568-633, looked up): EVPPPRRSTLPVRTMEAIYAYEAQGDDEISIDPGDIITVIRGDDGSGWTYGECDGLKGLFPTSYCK

T8: Cdc25, P04821
T8 sequence (P04821 50-136, looked up): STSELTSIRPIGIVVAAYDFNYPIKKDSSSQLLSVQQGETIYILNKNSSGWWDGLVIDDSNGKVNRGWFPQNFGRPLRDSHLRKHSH

T9: Cyk3, Q07533
T9 sequence (Q07533 1-83, looked up): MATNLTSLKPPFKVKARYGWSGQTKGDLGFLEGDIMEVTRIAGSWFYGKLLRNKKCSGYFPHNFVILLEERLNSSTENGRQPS

T10: Fus1, P11710
T10 sequence (P11710 432-512, looked up): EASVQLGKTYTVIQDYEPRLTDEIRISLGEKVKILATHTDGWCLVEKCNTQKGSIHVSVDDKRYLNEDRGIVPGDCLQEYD

T11: Hof1, Q05080
T11 sequence (Q05080 590-669, looked up): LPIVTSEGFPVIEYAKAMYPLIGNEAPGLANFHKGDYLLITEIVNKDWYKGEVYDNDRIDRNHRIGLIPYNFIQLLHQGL

T12: Hse1, P38753
T12 sequence (P38753 208-285, looked up): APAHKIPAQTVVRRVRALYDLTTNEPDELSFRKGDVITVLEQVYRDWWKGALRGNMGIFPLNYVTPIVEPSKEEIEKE

T13: Lsb1, P53281
T13 sequence (P53281 45-122, looked up): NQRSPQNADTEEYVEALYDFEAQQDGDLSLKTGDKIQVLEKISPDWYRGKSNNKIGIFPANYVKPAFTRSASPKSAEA

T14: Lsb3, P43603
T14 sequence (P43603 385-451, looked up): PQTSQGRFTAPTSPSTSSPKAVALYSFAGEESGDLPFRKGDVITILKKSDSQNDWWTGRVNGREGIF

T15: Lsb4, P32793
T15 sequence (P32793 402-468, looked up): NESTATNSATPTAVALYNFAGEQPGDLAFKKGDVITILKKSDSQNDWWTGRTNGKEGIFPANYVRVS

T16: Myo5, Q04439
T16 sequence (Q04439 1072-1160, looked up): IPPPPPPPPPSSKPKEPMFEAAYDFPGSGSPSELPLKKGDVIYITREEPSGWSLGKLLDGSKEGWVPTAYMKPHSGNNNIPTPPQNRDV

T17: Nbp2, Q12163
T17 sequence (Q12163 103-180, looked up): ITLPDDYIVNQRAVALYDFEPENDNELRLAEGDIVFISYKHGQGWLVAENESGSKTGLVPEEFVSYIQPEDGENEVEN

T18: Pex13, P80667
T18 sequence (P80667 295-386, looked up): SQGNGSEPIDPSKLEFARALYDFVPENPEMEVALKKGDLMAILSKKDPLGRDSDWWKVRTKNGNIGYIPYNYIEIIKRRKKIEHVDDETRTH

T19: Pin3, Q06449
T19 sequence (Q06449 53-122, looked up): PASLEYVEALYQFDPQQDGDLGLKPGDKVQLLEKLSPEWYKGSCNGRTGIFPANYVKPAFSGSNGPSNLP

T20: Sla1-2, P32790
T20 sequence (P32790 60-140, looked up): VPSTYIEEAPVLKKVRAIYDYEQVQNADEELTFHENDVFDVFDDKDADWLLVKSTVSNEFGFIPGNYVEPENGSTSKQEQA

T21: Sla1-3, P32790
T21 sequence (P32790 344-424, looked up): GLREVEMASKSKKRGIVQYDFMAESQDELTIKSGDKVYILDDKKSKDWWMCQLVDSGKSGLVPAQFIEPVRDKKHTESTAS


Assays:
Assay in all cases: SPOT array
Abp1, P15891 = biological target: T1, Abp1, P15891; conditions: median of control spots 935
Bbc1, P47068 = biological target: T2, Bbc1, P47068; conditions: median of control spots 796
Bem1-1, P29366 = conditions: median of control spots 4282
Sequence of Bem1-1, P29366 (P29366 55-141): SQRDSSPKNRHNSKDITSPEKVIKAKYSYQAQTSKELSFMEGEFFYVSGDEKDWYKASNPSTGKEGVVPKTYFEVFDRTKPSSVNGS

Bem1-2, P29366 = conditions: median of control spots 4347
Sequence of Bem1-2, P29366 (P29366 139-227): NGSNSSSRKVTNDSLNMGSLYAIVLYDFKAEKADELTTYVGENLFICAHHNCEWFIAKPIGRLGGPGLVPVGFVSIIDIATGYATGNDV

Boi1, P38041 = biological target: T3, Boi1, P38041; conditions: median of control spots 1162
Boi2, P39969 = biological target: T4, Boi2, P39969; conditions: median of control spots 1161
Bud14, P27637 = biological target: T5, Bud14, P27637; conditions: median of control spots 956
Bzz1-1, P38822 = biological target: T6, Bzz1-1, P38822; conditions: median of control spots 4446
Bzz1-2, P38822 = biological target: T7, Bzz1-2, P38822; conditions: median of control spots 4538
Cdc25, P04821 = biological target: T8, Cdc25, P04821; conditions: median of control spots 969
Cyk3, Q07533 = biological target: T9, Cyk3, Q07533; conditions: median of control spots 1451
Fus1, P11710 = biological target: T10, Fus1, P11710; conditions: median of control spots 1200
GST = conditions: median of control spots 978
Hof1, Q05080 = biological target: T11, Hof1, Q05080; conditions: median of control spots 4086
Hse1, P38753 = biological target: T12, Hse1, P38753; conditions: median of control spots 1727
Lsb1, P53281 = biological target: T13, Lsb1, P53281; conditions: median of control spots 388
Lsb3, P43603 = biological target: T14, Lsb3, P43603; conditions: median of control spots 406
Lsb4, P32793 = biological target: T15, Lsb4, P32793; conditions: median of control spots 397
Myo3, P36006 = conditions: median of control spots 468
Myo5, Q04439 = biological target: T16, Myo5, Q04439; conditions: median of control spots 471
Nbp2, Q12163 = biological target: T17, Nbp2, Q12163; conditions: median of control spots 357
Pex13, P80667 = biological target: T18, Pex13, P80667; conditions: median of control spots 1341
Pin3, Q06449 = biological target: T19, Pin3, Q06449; conditions: median of control spots 2171
Rvs167, P39743 = conditions: median of control spots 2707
Sequence of Rvs167, P39743 (P39743 419-482): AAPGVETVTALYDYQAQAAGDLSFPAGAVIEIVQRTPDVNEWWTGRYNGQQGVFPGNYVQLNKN

Sho1, P40073 = conditions: median of control spots 1148
Sequence of Sho1, P40073 (P40073 287-367): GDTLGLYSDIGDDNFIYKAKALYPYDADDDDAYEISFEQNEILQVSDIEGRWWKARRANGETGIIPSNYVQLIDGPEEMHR

Sla1-2, P32790 = biological target: T20, Sla1-2, P32790; conditions: median of control spots 712
Sla1-3, P32790 = biological target: T21, Sla1-3, P32790; conditions: median of control spots 5475

SPOT intensity (Abp1, P15891)	SPOT intensity (Bbc1, P47068)	SPOT intensity (Bem1-1, P29366)	SPOT intensity (Bem1-2, P29366)	SPOT intensity (Boi1, P38041)	SPOT intensity (Boi2, P39969)	SPOT intensity (Bud14, P27637)	SPOT intensity (Bzz1-1, P38822)	SPOT intensity (Bzz1-2, P38822)	SPOT intensity (Cdc25, P04821)	SPOT intensity (Cyk3, Q07533)	SPOT intensity (Fus1, P11710)	SPOT intensity (GST)	SPOT intensity (Hof1, Q05080)	SPOT intensity (Hse1, P38753)	SPOT intensity (Lsb1, P53281)	SPOT intensity (Lsb3, P43603)	SPOT intensity (Lsb4, P32793)	SPOT intensity (Myo3, P36006)	SPOT intensity (Myo5, Q04439)	Binder	also measured
0	0	0	0	2	0	0	1	1	0	0	0	0	143	0	0	0	0	491	367	VDFTLPPPPPPPGLD	SPOT intensity (Nbp2, Q12163): 0; SPOT intensity (Pex13, P80667): 2; SPOT intensity (Pin3, Q06449): 0; SPOT intensity (Rvs167, P39743): 0; SPOT intensity (Sho1, P40073): 0; SPOT intensity (Sla1-2, P32790): 1; SPOT intensity (Sla1-3, P32790): 0
0	0	0	0	0	0	0	7	0	0	2	0	1	116	0	0	0	0	455	234	FTLPPPPPPPGLDEL	SPOT intensity (Nbp2, Q12163): 0; SPOT intensity (Pex13, P80667): 13; SPOT intensity (Pin3, Q06449): 0; SPOT intensity (Rvs167, P39743): 0; SPOT intensity (Sho1, P40073): 0; SPOT intensity (Sla1-2, P32790): 0; SPOT intensity (Sla1-3, P32790): 0
231	138	1	14600	3	4	0	2	52	4	2	0	0	0	0	360	21	56	553	593	GKFIPSRPAPKPPSS	SPOT intensity (Nbp2, Q12163): 2880; SPOT intensity (Pex13, P80667): 362; SPOT intensity (Pin3, Q06449): 12; SPOT intensity (Rvs167, P39743): 5; SPOT intensity (Sho1, P40073): 22; SPOT intensity (Sla1-2, P32790): 0; SPOT intensity (Sla1-3, P32790): 492

Continued, binder first:

Binder	SPOT intensity (Abp1, P15891)	SPOT intensity (Bbc1, P47068)	SPOT intensity (Bem1-1, P29366)	SPOT intensity (Bem1-2, P29366)	SPOT intensity (Boi1, P38041)	SPOT intensity (Boi2, P39969)	SPOT intensity (Bud14, P27637)	SPOT intensity (Bzz1-1, P38822)	SPOT intensity (Bzz1-2, P38822)	SPOT intensity (Cdc25, P04821)	SPOT intensity (Cyk3, Q07533)	SPOT intensity (Fus1, P11710)	SPOT intensity (GST)	SPOT intensity (Hof1, Q05080)	SPOT intensity (Hse1, P38753)	SPOT intensity (Lsb1, P53281)	SPOT intensity (Lsb3, P43603)	SPOT intensity (Lsb4, P32793)	SPOT intensity (Myo3, P36006)	SPOT intensity (Myo5, Q04439)	also measured
DTFLPPPPPPPSNFE	0	0	0	0	1	3	0	3	0	0	0	0	0	0	0	0	0	0	518	453	SPOT intensity (Nbp2, Q12163): 0; SPOT intensity (Pex13, P80667): 8; SPOT intensity (Pin3, Q06449): 0; SPOT intensity (Rvs167, P39743): 0; SPOT intensity (Sho1, P40073): 0; SPOT intensity (Sla1-2, P32790): 0; SPOT intensity (Sla1-3, P32790): 0
DLPLPDLPPEPPTEL	0	0	3	0	2	1	0	0	0	2	0	0	1	566	0	0	0	0	262	101	SPOT intensity (Nbp2, Q12163): 0; SPOT intensity (Pex13, P80667): 0; SPOT intensity (Pin3, Q06449): 0; SPOT intensity (Rvs167, P39743): 0; SPOT intensity (Sho1, P40073): 0; SPOT intensity (Sla1-2, P32790): 0; SPOT intensity (Sla1-3, P32790): 0
DFTLPPPPPPPGLDE	0	0	0	1	0	0	0	0	0	0	0	0	1	6	0	0	0	0	345	306	SPOT intensity (Nbp2, Q12163): 3; SPOT intensity (Pex13, P80667): 0; SPOT intensity (Pin3, Q06449): 0; SPOT intensity (Rvs167, P39743): 0; SPOT intensity (Sho1, P40073): 0; SPOT intensity (Sla1-2, P32790): 0; SPOT intensity (Sla1-3, P32790): 0
